According to patent US20250339569A1 (3B PHARMACEUTICALS, published 2025):
Starred links: 1 amine or outer side, 2 acyl side, 3 side chain; linkers in the order of their positions; H or OH if unused. Positions of bridges follow the written chain, without caps; N, C: chain ends. Non-standard residues stand in square brackets, D forms with d. Groups on a side chain read outwards from the residue. Primed or numbered codes have the meaning given here. *: point of attachment. Ttds = 1,13-diamino-4,7,10-trioxatridecan-succinamic acid spacer, NCCCOCCOCCOCCCNC(=O)CCC(=O)*; APAc″ = 2-(4-(amino)piperidin-1-yl)acetic acid, NC1CCN(CC(=O)*)CC1; DOTA = O=C(O)CN1CCN(CC(=O)O)CCN(CC(=O)*)CCN(CC(=O)O)CC1; Ttds(3) = NCCCOCCOCCOCCCNC(=O)CCC(=O)*; mXylylene = c1cc(C[*:1])cc(C[*:2])c1; tBuAla = CC(C)(C)C[C@H](N)C(=O)O; Aic = NC1(C(=O)O)Cc2ccccc2C1; Pen = CC(C)(S)[C@H](N)C(=O)O; Propanoyl(3-OH) = O=C(CCO)*; Isovaleryl = CC(C)CC(=O)*; dPip = O=C(O)[C@H]1CCCCN1; Ac6c = NC1(C(=O)O)CCCCC1; Nle = CCCC[C@H](N)C(=O)O; 4Amc = not defined here; APAc = not defined here; Ac5c = NC1(C(=O)O)CCCC1; Thp = NC1(C(=O)O)CCOCC1; Apr = not defined here; AEEA = NCCOCCOCC(=O)O; Aib = CC(C)(N)C(=O)O; Nlys = NCCCCNCC(=O)O; Sar = CNCC(=O)O

B1: 3BP-3493 (peptide)
peptide: Ac-VYCE[dP]DW[tBuAla]TWA[Pen]-NH2
modifications: linker 3-12 via mXylylene
SMILES: CC(=O)N[C@H](C(=O)N[C@@H](Cc1ccc(O)cc1)C(=O)N[C@H]1CSCc2cccc(c2)CSC(C)(C)[C@@H](C(N)=O)NC(=O)[C@H](C)NC(=O)[C@H](Cc2c[nH]c3ccccc23)NC(=O)[C@H]([C@@H](C)O)NC(=O)[C@H](CC(C)(C)C)NC(=O)[C@H](Cc2c[nH]c3ccccc23)NC(=O)[C@H](CC(=O)O)NC(=O)[C@H]2CCCN2C(=O)[C@H](CCC(=O)O)NC1=O)C(C)C
notes: also called Ac-Val-Tyr-[Cys(3MeBn)-Glu-pro-Asp-Trp-Npg-Thr-Trp-Ala-Pen]-NH2
B2: 3BP-3501 (peptide)
peptide: Ac-VYCE[Sar]DW[tBuAla]TWA[Pen]-NH2
modifications: linker 3-12 via mXylylene
SMILES: CC(=O)N[C@H](C(=O)N[C@@H](Cc1ccc(O)cc1)C(=O)N[C@H]1CSCc2cccc(c2)CSC(C)(C)[C@@H](C(N)=O)NC(=O)[C@H](C)NC(=O)[C@H](Cc2c[nH]c3ccccc23)NC(=O)[C@H]([C@@H](C)O)NC(=O)[C@H](CC(C)(C)C)NC(=O)[C@H](Cc2c[nH]c3ccccc23)NC(=O)[C@H](CC(=O)O)NC(=O)CN(C)C(=O)[C@H](CCC(=O)O)NC1=O)C(C)C
notes: also called Ac-Val-Tyr-[Cys(3MeBn)-Glu-Nmg-Asp-Trp-Npg-Thr-Trp-Ala-Pen]-NH2
B3: 3BP-3562 (peptide)
peptide: Ac-VYCE[Nlys](DOTA)DWLTWAC-NH2
modifications: linker 3-12 via mXylylene
notes: also called Ac-Val-Tyr-[Cys(3MeBn)-Glu-Nlys(DOTA)-Asp-Trp-Leu-Thr-Trp-Ala-Cys]-NH2
B4: 3BP-3569 (peptide)
peptide: Isovaleryl-YCE[dP]DWLTWSC-NH2
modifications: linker 2-11 via mXylylene
SMILES: CC(C)CC(=O)N[C@@H](Cc1ccc(O)cc1)C(=O)N[C@H]1CSCc2cccc(c2)CSC[C@@H](C(N)=O)NC(=O)[C@H](CO)NC(=O)[C@H](Cc2c[nH]c3ccccc23)NC(=O)[C@H]([C@@H](C)O)NC(=O)[C@H](CC(C)C)NC(=O)[C@H](Cc2c[nH]c3ccccc23)NC(=O)[C@H](CC(=O)O)NC(=O)[C@H]2CCCN2C(=O)[C@H](CCC(=O)O)NC1=O
notes: also called Iva-Tyr-[Cys(3MeBn)-Glu-pro-Asp-Trp-Leu-Thr-Trp-Ser-Cys]-NH2
B5: 3BP-3727 (peptide)
peptide: Isovaleryl-DCE[dP]DWLTWSC-NH2
modifications: linker 2-11 via 3MeBn
notes: also called Iva-Asp-[Cys(3MeBn)-Glu-pro-Asp-Trp-Leu-Thr-Trp-Ser-Cys]-NH2
B6: 3BP-3728 (peptide)
peptide: Isovaleryl-ECE[dP]DWLTWSC-NH2
modifications: linker 2-11 via 3MeBn
notes: also called Iva-Glu-[Cys(3MeBn)-Glu-pro-Asp-Trp-Leu-Thr-Trp-Ser-Cys]-NH2
B7: 3BP-3740 (peptide)
peptide: Isovaleryl-YCE[dP]DWLTWE([Apr-AEEA-DOTA])C-NH2
modifications: linker 2-11 via 3MeBn; reading uncertain
notes: also called Iva-Tyr-[Cys(3MeBn)-Glu-pro-Asp-Trp-Leu-Thr-Trp-Glu(NH-Apr-O2Oc-DOTA′)-Cys]-NH2
B8: 3BP-3742 (peptide)
peptide: Isovaleryl-FCE[dP]DWLTWE([Apr-AEEA-DOTA])C-NH2
modifications: linker 2-11 via 3MeBn; reading uncertain
notes: also called Iva-Phe-[Cys(3MeBn)-Glu-pro-Asp-Trp-Leu-Thr-Trp-Glu(NH-Apr-O2Oc-DOTA′)-Cys]-NH2
B9: 3BP-3743 (peptide)
peptide: Isovaleryl-SCE[dP]DWLTWE([Apr-AEEA-DOTA])C-NH2
modifications: linker 2-11 via 3MeBn; reading uncertain
notes: also called Iva-Ser-[Cys(3MeBn)-Glu-pro-Asp-Trp-Leu-Thr-Trp-Glu(NH-Apr-O2Oc-DOTA′)-Cys]-NH2
B10: 3BP-3841 (peptide)
peptide: Ac-YCE[dP]DWLTWE([Apr-DOTA])C-NH2
modifications: linker 2-11 via 3MeBn; reading uncertain
notes: also called Ac-Tyr-[Cys(3MeBn)-Glu-pro-Asp-Trp-Leu-Thr-Trp-Glu(NH-Apr-DOTA′)-Cys]-NH2
B11: 3BP-3842 (peptide)
peptide: {Propanoyl(3-OH)}-YCE[dP]DWLTWE([Apr-DOTA])C-NH2
modifications: linker 2-11 via mXylylene; reading uncertain
notes: also called 3OHPr-Tyr-[Cys(3MeBn)-Glu-pro-Asp-Trp-Leu-Thr-Trp-Glu(NH-Apr-DOTA′)-Cys]-NH2
B12: 3BP-3584 (peptide)
peptide: {DOTA-APAc}-VYCE[dP]DW[Ac6c]TWSC-NH2
modifications: linker 3-12 via mXylylene; reading uncertain
notes: also called DOTA-APAc-Val-Tyr-[Cys(3MeBn)-Glu-pro-Asp-Trp-Egz-Thr-Trp-Ser-Cys]-NH2
B13: 3BP-3585 (peptide)
peptide: {DOTA-APAc}-VYCE[dP]DW[Thp]TWSC-NH2
modifications: linker 3-12 via mXylylene; reading uncertain
notes: also called DOTA-APAc-Val-Tyr-[Cys(3MeBn)-Glu-pro-Asp-Trp-Thp-Thr-Trp-Ser-Cys]-NH2
B14: 3BP-3586 (peptide)
peptide: {DOTA-APAc}-VYCE[dP]DW[Aic]TWSC-NH2
modifications: linker 3-12 via mXylylene; reading uncertain
notes: also called DOTA-APAc-Val-Tyr-[Cys(3MeBn)-Glu-pro-Asp-Trp-Aic-Thr-Trp-Ser-Cys]-NH2
B15: 3BP-3587 (peptide)
peptide: {DOTA-APAc}-VYCE[dP]DW[Ac5c]TWSC-NH2
modifications: linker 3-12 via mXylylene; reading uncertain
notes: also called DOTA-APAc-Val-Tyr-[Cys(3MeBn)-Glu-pro-Asp-Trp-Eca-Thr-Trp-Ser-Cys]-NH2
B16: 3BP-3729 (peptide)
peptide: Ac-YCE[dP]DWLTWSC-NH2
modifications: linker 2-11 via 3MeBn
notes: also called Ac-Tyr-[Cys(3MeBn)-Glu-pro-Asp-Trp-Leu-Thr-Trp-Ser-Cys]-NH2
B17: 3BP-3730 (peptide)
peptide: {Propanoyl(3-OH)}-YCE[dP]DWLTWSC-NH2
modifications: linker 2-11 via 3MeBn
notes: also called 3OHPr-Tyr-[Cys(3MeBn)-Glu-pro-Asp-Trp-Leu-Thr-Trp-Ser-Cys]-NH2
B18: 3BP-3858 (peptide)
peptide: {DOTA-APAc″}-CE[dP]DWLTWSC-NH2
modifications: linker 1-10 via mXylylene
notes: also called DOTA-APAc-[Cys(3MeBn)-Glu-pro-Asp-Trp-Leu-Thr-Trp-Ser-Cys]-NH2
B19: 3BP-3859 (peptide)
peptide: {DOTA}-YCE[dP]DWLTWSC-NH2
modifications: linker 2-11 via mXylylene
SMILES: CC(C)C[C@@H]1NC(=O)[C@H](Cc2c[nH]c3ccccc23)NC(=O)[C@H](CC(=O)O)NC(=O)[C@H]2CCCN2C(=O)[C@H](CCC(=O)O)NC(=O)[C@@H](NC(=O)[C@H](Cc2ccc(O)cc2)NC(=O)CN2CCN(CC(=O)O)CCN(CC(=O)O)CCN(CC(=O)O)CC2)CSCc2cccc(c2)CSC[C@@H](C(N)=O)NC(=O)[C@H](CO)NC(=O)[C@H](Cc2c[nH]c3ccccc23)NC(=O)[C@H]([C@@H](C)O)NC1=O
notes: also called DOTA-Tyr-[Cys(3MeBn)-Glu-pro-Asp-Trp-Leu-Thr-Trp-Ser-Cys]-NH2
B20: 3BP-3867 (peptide)
peptide: {DOTA-APAc″}-YCE[dP]DWLTWSC-NH2
modifications: linker 2-11 via mXylylene
notes: also called DOTA-APAc-Tyr-[Cys(3MeBn)-Glu-pro-Asp-Trp-Leu-Thr-Trp-Ser-Cys]-NH2
B21: 3BP-3868 (peptide)
peptide: {DOTA-4Amc}-YCE[dP]DWLTWSC-NH2
modifications: linker 2-11 via mXylylene; reading uncertain
notes: also called DOTA-4Amc-Tyr-[Cys(3MeBn)-Glu-pro-Asp-Trp-Leu-Thr-Trp-Ser-Cys]-NH2
B22: 3BP-3869 (peptide)
peptide: {DOTA-AEEA}-YCE[dP]DWLTWSC-NH2
modifications: linker 2-11 via mXylylene
SMILES: CC(C)C[C@@H]1NC(=O)[C@H](Cc2c[nH]c3ccccc23)NC(=O)[C@H](CC(=O)O)NC(=O)[C@H]2CCCN2C(=O)[C@H](CCC(=O)O)NC(=O)[C@@H](NC(=O)[C@H](Cc2ccc(O)cc2)NC(=O)COCCOCCNC(=O)CN2CCN(CC(=O)O)CCN(CC(=O)O)CCN(CC(=O)O)CC2)CSCc2cccc(c2)CSC[C@@H](C(N)=O)NC(=O)[C@H](CO)NC(=O)[C@H](Cc2c[nH]c3ccccc23)NC(=O)[C@H]([C@@H](C)O)NC1=O
notes: also called DOTA-O2Oc-Tyr-[Cys(3MeBn)-Glu-pro-Asp-Trp-Leu-Thr-Trp-Ser-Cys]-NH2
B23: 3BP-3870 (peptide)
peptide: {DOTA-Ttds(3)}-[Nle]YCE[dP]DWLTWSC-NH2
modifications: linker 3-12 via mXylylene
notes: also called DOTA-Ttds-Nle-Tyr-[Cys(3MeBn)-Glu-pro-Asp-Trp-Leu-Thr-Trp-Ser-Cys]-NH2
B24: 3BP-2959 (peptide)
peptide: {DOTA-Ttds}-VYCEGDWLTWQC-NH2
modifications: linker 3-12 via mXylylene
B25: 3BP-3283 (peptide)
peptide: Ac-VYCE[dPip]DWLTWAC-NH2
modifications: linker 3-12 via mXylylene
SMILES: CC(=O)N[C@H](C(=O)N[C@@H](Cc1ccc(O)cc1)C(=O)N[C@H]1CSCc2cccc(c2)CSC[C@@H](C(N)=O)NC(=O)[C@H](C)NC(=O)[C@H](Cc2c[nH]c3ccccc23)NC(=O)[C@H]([C@@H](C)O)NC(=O)[C@H](CC(C)C)NC(=O)[C@H](Cc2c[nH]c3ccccc23)NC(=O)[C@H](CC(=O)O)NC(=O)[C@H]2CCCCN2C(=O)[C@H](CCC(=O)O)NC1=O)C(C)C
notes: also called Ac-Val-Tyr-[Cys(3MeBn)-Glu-pip-Asp-Trp-Leu-Thr-Trp-Ala-Cys]-NH2
B26: 3BP-3059 (peptide)
peptide: Ac-VYCE[Aib]DWLTWQC-NH2
modifications: linker 3-12 via mXylylene
SMILES: CC(=O)N[C@H](C(=O)N[C@@H](Cc1ccc(O)cc1)C(=O)N[C@H]1CSCc2cccc(c2)CSC[C@@H](C(N)=O)NC(=O)[C@H](CCC(N)=O)NC(=O)[C@H](Cc2c[nH]c3ccccc23)NC(=O)[C@H]([C@@H](C)O)NC(=O)[C@H](CC(C)C)NC(=O)[C@H](Cc2c[nH]c3ccccc23)NC(=O)[C@H](CC(=O)O)NC(=O)C(C)(C)NC(=O)[C@H](CCC(=O)O)NC1=O)C(C)C
notes: also called Ac-Val-Tyr-[Cys(3MeBn)-Glu-Aib-Asp-Trp-Leu-Thr-Trp-Gln-Cys]-NH2
B27: 3BP-3060 (peptide)
peptide: Ac-VYCE[Sar]DWLTWQC-NH2
modifications: linker 3-12 via mXylylene
SMILES: CC(=O)N[C@H](C(=O)N[C@@H](Cc1ccc(O)cc1)C(=O)N[C@H]1CSCc2cccc(c2)CSC[C@@H](C(N)=O)NC(=O)[C@H](CCC(N)=O)NC(=O)[C@H](Cc2c[nH]c3ccccc23)NC(=O)[C@H]([C@@H](C)O)NC(=O)[C@H](CC(C)C)NC(=O)[C@H](Cc2c[nH]c3ccccc23)NC(=O)[C@H](CC(=O)O)NC(=O)CN(C)C(=O)[C@H](CCC(=O)O)NC1=O)C(C)C
notes: also called Ac-Val-Tyr-[Cys(3MeBn)-Glu-Nmg-Asp-Trp-Leu-Thr-Trp-Gln-Cys]-NH2
B28: 3BP-3064 (peptide)
peptide: Ac-VYCEGDWLTWQ[Pen]-NH2
modifications: linker 3-12 via mXylylene
SMILES: CC(=O)N[C@H](C(=O)N[C@@H](Cc1ccc(O)cc1)C(=O)N[C@H]1CSCc2cccc(c2)CSC(C)(C)[C@@H](C(N)=O)NC(=O)[C@H](CCC(N)=O)NC(=O)[C@H](Cc2c[nH]c3ccccc23)NC(=O)[C@H]([C@@H](C)O)NC(=O)[C@H](CC(C)C)NC(=O)[C@H](Cc2c[nH]c3ccccc23)NC(=O)[C@H](CC(=O)O)NC(=O)CNC(=O)[C@H](CCC(=O)O)NC1=O)C(C)C

target: human carbonic anhydrase 9 (CAIX) (human, UniProt Q16790 38-459); experiment: FACS competition on HT-29 cells against tracer 3BP-2776; pIC50 category A = pIC50 >8.0

pIC50, > 8 pic50:
B1, B2, B3, B4, B5, B6, B7, B8, B9, B10, B11, B12, B13, B14, B15, B16, B17, B18, B19, B20, B21, B22, B23, B24, B25, B26, B27, B28
